Results: patent US20170010270A1 (Chugai, published 2017)

Assays:
[1] = target: T1, GPC3 peptide, amino acid position 1-30 (SEQ ID NO: 1) (human); assay: ELISA on immobilised peptide
T1 construct: synthetic 30-residue peptide of GPC3
T1 peptide: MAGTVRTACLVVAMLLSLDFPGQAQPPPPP
Method: (§1) In order to identify more detailed epitopes for the antibodies, the amino acid sequence of GPC3 was divided into peptides of 30 residues containing 10-residue overlaps, and the corresponding peptides were synthesized (SEQ ID NOs: 1 to 29 in Table 2). Each peptide thus synthesized was dissolved at a concentration of 1 mg/mL in dimethyl sulfoxide and then diluted to 1 μg/mL with PBS. The diluted peptide solution was added at 70 μL/well to a 96-well plate and immobilized thereon at room temperature for 1 hour. After removal of unimmobilized peptides, 20% Blocking-one (Nacalai Tesque, Inc.) was added thereto as a blocking buffer solution at 200 μL/well, and the plate was blocked overnight. After removal of the blocking buffer solution, each well was washed with TBS-T three times, and each antibody diluted to 2 μg/mL with a blocking buffer was then added thereto at 70 μL/well. One hour later, the antibody was removed, and each well was washed three times by the addition of TBS-T at 200 μL/well. An HRP-bound anti-mouse antibody was added at 70 μL/well to each well and reacted therewith for 1 hour. After removal of the antibody, each well was washed with 200 μL/well of TBS-T three times, and a chromogenic reagent ABTS Peroxidase Substrate System (1 component, KPL, Kirkegaard & Perry Laboratories, Inc.) was then added thereto at 70 μL/well and reacted at room temperature for […] to develop color. The reaction was terminated by the addition of 1% SDS at 70 μL/well, and the absorbance at 405 nm was measured using a plate reader.

[2] = target: T2, GPC3 peptide, amino acid position 21-50 (SEQ ID NO: 2) (human); assay: ELISA on immobilised peptide
T2 construct: synthetic 30-residue peptide of GPC3
T2 peptide: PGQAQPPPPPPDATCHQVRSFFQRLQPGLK
Method: as §1

[3] = target: T3, GPC3 peptide, amino acid position 41-70 (SEQ ID NO: 3) (human); assay: ELISA on immobilised peptide
T3 construct: synthetic 30-residue peptide of GPC3
T3 peptide: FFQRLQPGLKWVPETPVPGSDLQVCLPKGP
Method: as §1

[4] = target: T4, GPC3 peptide, amino acid position 61-90 (SEQ ID NO: 4) (human); assay: ELISA on immobilised peptide
T4 construct: synthetic 30-residue peptide of GPC3
T4 peptide: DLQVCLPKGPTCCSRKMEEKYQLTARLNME
Method: as §1

[5] = target: T5, GPC3 peptide, amino acid position 81-110 (SEQ ID NO: 5) (human); assay: ELISA on immobilised peptide
T5 construct: synthetic 30-residue peptide of GPC3
T5 peptide: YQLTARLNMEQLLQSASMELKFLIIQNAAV
Method: as §1

[6] = target: T6, GPC3 peptide, amino acid position 101-130 (SEQ ID NO: 6) (human); assay: ELISA on immobilised peptide
T6 construct: synthetic 30-residue peptide of GPC3
T6 peptide: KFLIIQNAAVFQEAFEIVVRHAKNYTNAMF
Method: as §1

[7] = target: T7, GPC3 peptide, amino acid position 121-150 (SEQ ID NO: 7) (human); assay: ELISA on immobilised peptide
T7 construct: synthetic 30-residue peptide of GPC3
T7 peptide: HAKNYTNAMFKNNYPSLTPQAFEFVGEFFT
Method: as §1

[8] = target: T8, GPC3 peptide, amino acid position 141-170 (SEQ ID NO: 8) (human); assay: ELISA on immobilised peptide
T8 construct: synthetic 30-residue peptide of GPC3
T8 peptide: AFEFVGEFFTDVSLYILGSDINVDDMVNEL
Method: as §1

[9] = target: T9, GPC3 peptide, amino acid position 161-190 (SEQ ID NO: 9) (human); assay: ELISA on immobilised peptide
T9 construct: synthetic 30-residue peptide of GPC3
T9 peptide: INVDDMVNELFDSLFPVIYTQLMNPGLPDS
Method: as §1

[10] = target: T10, GPC3 peptide, amino acid position 221-250 (SEQ ID NO: 12) (human); assay: ELISA on immobilised peptide
T10 construct: synthetic 30-residue peptide of GPC3
T10 peptide: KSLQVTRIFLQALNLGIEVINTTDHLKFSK
Method: as §1

[11] = target: T11, GPC3 peptide, amino acid position 241-270 (SEQ ID NO: 13) (human); assay: ELISA on immobilised peptide
T11 construct: synthetic 30-residue peptide of GPC3
T11 peptide: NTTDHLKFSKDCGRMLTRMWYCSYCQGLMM
Method: as §1

[12] = target: T12, GPC3 peptide, amino acid position 301-330 (SEQ ID NO: 16) (human); assay: ELISA on immobilised peptide
T12 construct: synthetic 30-residue peptide of GPC3
T12 peptide: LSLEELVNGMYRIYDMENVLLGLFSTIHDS
Method: as §1

[13] = target: T13, GPC3 peptide, amino acid position 321-350 (SEQ ID NO: 17) (human); assay: ELISA on immobilised peptide
T13 construct: synthetic 30-residue peptide of GPC3
T13 peptide: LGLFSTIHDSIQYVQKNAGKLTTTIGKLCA
Method: as §1

[14] = target: T14, GPC3 peptide, amino acid position 381-410 (SEQ ID NO: 20) (human); assay: ELISA on immobilised peptide
T14 construct: synthetic 30-residue peptide of GPC3
T14 peptide: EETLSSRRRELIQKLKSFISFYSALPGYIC
Method: as §1

[15] = target: T15, GPC3 peptide, amino acid position 401-430 (SEQ ID NO: 21) (human); assay: ELISA on immobilised peptide
T15 construct: synthetic 30-residue peptide of GPC3
T15 peptide: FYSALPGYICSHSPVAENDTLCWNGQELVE
Method: as §1

[16] = target: T16, GPC3 peptide, amino acid position 421-450 (SEQ ID NO: 22) (human); assay: ELISA on immobilised peptide
T16 construct: synthetic 30-residue peptide of GPC3
T16 peptide: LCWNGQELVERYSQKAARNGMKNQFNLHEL
Method: as §1

[17] = target: T17, GPC3 peptide, amino acid position 441-470 (SEQ ID NO: 23) (human); assay: ELISA on immobilised peptide
T17 construct: synthetic 30-residue peptide of GPC3
T17 peptide: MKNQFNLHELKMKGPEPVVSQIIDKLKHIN
Method: as §1

[18] = target: T18, GPC3 peptide, amino acid position 461-490 (SEQ ID NO: 24) (human); assay: ELISA on immobilised peptide
T18 construct: synthetic 30-residue peptide of GPC3
T18 peptide: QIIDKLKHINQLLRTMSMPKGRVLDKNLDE
Method: as §1

[19] = target: T19, GPC3 peptide, amino acid position 521-550 (SEQ ID NO: 27) (human); assay: ELISA on immobilised peptide
T19 construct: synthetic 30-residue peptide of GPC3
T19 peptide: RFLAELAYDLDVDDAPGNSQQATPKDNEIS
Method: as §1

[20] = target: T20, GPC3 peptide, amino acid position 541-570 (SEQ ID NO: 28) (human); assay: ELISA on immobilised peptide
T20 construct: synthetic 30-residue peptide of GPC3
T20 peptide: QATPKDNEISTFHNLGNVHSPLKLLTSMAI
Method: as §1

[21] = target: T21, AW2, C-terminally His-tagged recombinant product of positions 1 to 196 of GPC3 (human, UniProt P51654 25-196); assay: Western blot of CHO cell pellets, reducing
T21 construct: Expressed in CHO cells; cell pellets used in reducing Western blot; Construct is stated from position 1; also called AW2 (1-196); not shown: C-terminal His tag

[22] = target: T22, AW3, C-terminally His-tagged recombinant product of positions 1 to 218 of GPC3 (human, UniProt P51654 25-218); assay: Western blot of CHO cell pellets, reducing
T22 construct: Expressed in CHO cells; cell pellets used in reducing Western blot; Construct is stated from position 1; not shown: C-terminal His tag
T22 sequence (P51654 25-218): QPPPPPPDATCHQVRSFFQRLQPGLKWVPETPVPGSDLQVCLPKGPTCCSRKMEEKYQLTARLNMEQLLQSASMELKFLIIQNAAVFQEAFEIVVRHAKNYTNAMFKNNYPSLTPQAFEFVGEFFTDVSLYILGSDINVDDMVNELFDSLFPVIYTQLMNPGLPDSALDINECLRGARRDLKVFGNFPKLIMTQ

T21 sequence (P51654 25-196): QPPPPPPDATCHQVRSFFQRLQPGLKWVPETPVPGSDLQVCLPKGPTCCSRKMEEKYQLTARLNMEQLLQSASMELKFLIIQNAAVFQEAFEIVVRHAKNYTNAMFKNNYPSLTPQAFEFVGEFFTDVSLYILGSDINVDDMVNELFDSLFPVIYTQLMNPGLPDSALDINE

Binder	binding result [1]	binding result [2]	binding result [3]	binding result [4]	binding result [5]	binding result [6]	binding result [7]	binding result [8]	binding result [9]	binding result [10]	binding result [11]	binding result [12]	binding result [13]	binding result [14]	binding result [15]	binding result [16]	binding result [17]	binding result [18]	binding result [19]	binding result [20]	further results
GT607 antibody (antibody, IgG1, V domains shown) VH: EVQLVESGGDVVRPGGSLKLSCAASGFTFSSYGMSWVRQLPDKRLEWVASVGNGGSYRYYPENLKGRFTISRDNTKNTLYLQISGLKSEDTAIYYCARRGAFPYFDVWGAGTTVTVSS VL: QIVLTQSPAIMSASPGEKVTLACSASSSVTYMHWYQQKSGTSPKRWIYETSKLASGVPPRFSGSGSGTSYSLTISTMEAEDAATYYCQQWSSNPLTFGAGTKLELKR	no binding (tested: 2 µg/mL)	no binding (tested: 2 µg/mL)	no binding (tested: 2 µg/mL)	no binding (tested: 2 µg/mL)	no binding (tested: 2 µg/mL)	no binding (tested: 2 µg/mL)	no binding (tested: 2 µg/mL)	no binding (tested: 2 µg/mL)	no binding (tested: 2 µg/mL)	no binding (tested: 2 µg/mL)	no binding (tested: 2 µg/mL)	no binding (tested: 2 µg/mL)	no binding (tested: 2 µg/mL)	no binding (tested: 2 µg/mL)	no binding (tested: 2 µg/mL)	no binding (tested: 2 µg/mL)	no binding (tested: 2 µg/mL)	no binding (tested: 2 µg/mL)	no binding (tested: 2 µg/mL)	no binding (tested: 2 µg/mL)	binding result [21]: no binding; binding result [22]: no binding
GT114 antibody (antibody, IgG1, V domains shown) VH: DVQLQESGPGLVKPSQSLSLTCTVTGYSITSDSAWNWIRQFPGNKLEWMAYIMYSGITSYNPSLKSRISITRDTAKNQFFLQLNSVTTEDSATYYCSRGYWYFDVWGAGTTVTVSS VL: QIVLTQSPAIMSASLGEEITLTCSASSSVSYMHWYQQKSGTSPKLLIYSTSILASGVPSRFSGSGSGTFYSLTISSVEAEDAADYYCLQWITYRTFGGGTKLEIKR	no binding (tested: 2 µg/mL)	no binding (tested: 2 µg/mL)	no binding (tested: 2 µg/mL)	no binding (tested: 2 µg/mL)	no binding (tested: 2 µg/mL)	no binding (tested: 2 µg/mL)	no binding (tested: 2 µg/mL)	no binding (tested: 2 µg/mL)	no binding (tested: 2 µg/mL)	no binding (tested: 2 µg/mL)	no binding (tested: 2 µg/mL)	no binding (tested: 2 µg/mL)	no binding (tested: 2 µg/mL)	no binding (tested: 2 µg/mL)	no binding (tested: 2 µg/mL)	no binding (tested: 2 µg/mL)	no binding (tested: 2 µg/mL)	no binding (tested: 2 µg/mL)	no binding (tested: 2 µg/mL)	no binding (tested: 2 µg/mL)	binding result [21]: no binding; binding result [22]: no binding
GT165 antibody (antibody, IgG1, V domains shown) VH: QVQLQQSGAELVGPGASVKISCKAFGYTFTNHHINWVKQRPGQGLDWIGYINPYNDYTNYNQKFKGKATLTVDKSSSTAYMELSSLTSEDSAVYYCARSDPAWFAYWGQGTLVTVSA VL: DIQMTQSPSSLSASLGGKVTITCKASQDINKNIAWYQHKPGKGPRLLIWYTYTLQPGIPSRFSGSGSGRDYSFSISNLEPEDIATYYCLQYDNLPFTFGTGTKLEIKR	no binding (tested: 2 µg/mL)	no binding (tested: 2 µg/mL)	no binding (tested: 2 µg/mL)	no binding (tested: 2 µg/mL)	no binding (tested: 2 µg/mL)	no binding (tested: 2 µg/mL)	no binding (tested: 2 µg/mL)	no binding (tested: 2 µg/mL)	no binding (tested: 2 µg/mL)	no binding (tested: 2 µg/mL)	no binding (tested: 2 µg/mL)	no binding (tested: 2 µg/mL)	no binding (tested: 2 µg/mL)	no binding (tested: 2 µg/mL)	no binding (tested: 2 µg/mL)	no binding (tested: 2 µg/mL)	no binding (tested: 2 µg/mL)	no binding (tested: 2 µg/mL)	no binding (tested: 2 µg/mL)	no binding (tested: 2 µg/mL)	binding result [21]: no binding; binding result [22]: no binding
